In FireProtDB:
Where “and” joins values, the source holds several entries; their conditions need not be identical. Identical values can stand only once.

Conditions: whole UniProt chain shown; for Tm / heat capacity change of unfolding / unfolding enthalpy (calorimetric) / unfolding enthalpy (van 't Hoff): Thermal
[1] = Bos taurus, pH 6, DSC, Sodium phosphate 50 mM, NaCl 200 mM, reversible: yes
[2] = Bos taurus, pH 7.2, DSC, phosphate 20 mM, reversible: yes (partial)
[3] = Bos taurus, pH 7.4, DSC, potassium phosphate 20 mM, reversible: Yes (65%)
[4] = Bos taurus, pH 7, DSC, Potassium phosphate 67 mM, MgCl2 1 mM
[5] = Comamonas testosteroni, pH 7, 25 °C, Urea, Fluorescence, phosphate 25 mM, reversible: yes

B1: Malate dehydrogenase wild type, P80040 (protein)
chain: MRKKISIIGAGFVGSTTAHWLAAKELGDIVLLDFVEGVPQGKALDLYEASPIEGFDVRVTGTNNYADTANSDVIVVTSGAPRKPGMSREDLIKVNADITRACISQAAPLSPNAVIIMVNNPLDAMTYLAAEVSGFPKERVIGQAGVLDAARYRTFIAMEAGVSVEDVQAMLMGGHGDEMVPLPRFSTISGIPVSEFIAPDRLAQIVERTRKGGGEIVNLLKTGSAYYAPAAATAQMVEAVLKDKKRVMPVAAYLTGQYGLNDIYFGVPVILGAGGVEKILELPLNEEEMALLNASAKAVRATLDTLKSL
Chloroflexus aurantiacus (strain ATCC 29366 / DSM 635 / J-10-fl), pH 7.5, CD, potassium phosphate 10 mM, reversible: No
  Tm: 67.8 °C

B2: NADP-dependent isopropanol dehydrogenase wild type, P25984 (protein)
chain: MKGFAMLGINKLGWIEKERPVAGSYDAIVRPLAVSPCTSDIHTVFEGALGDRKNMILGHEAVGEVVEVGSEVKDFKPGDRVIVPCTTPDWRSLEVQAGFQQHSNGMLAGWKFSNFKDGVFGEYFHVNDADMNLAILPKDMPLENAVMITDMMTTGFHGAELADIQMGSSVVVIGIGAVGLMGIAGAKLRGAGRIIGVGSRPICVEAAKFYGATDILNYKNGHIVDQVMKLTNGKGVDRVIMAGGGSETLSQAVSMVKPGGIISNINYHGSGDALLIPRVEWGCGMAHKTIKGGLCPGGRLRAEMLRDMVVYNRVDLSKLVTHVYHGFDHIEEALLLMKDKPKDLIKAVVIL
Clostridium beijerinckii, pH 6.8, CD, Na/K phosphate 50 mM
  Tm: 65.1 °C

B3: Ribonuclease pancreatic wild type, P61823 (protein)
chain: MALKSLVLLSLLVLVLLLVRVQPSLGKETAAAKFERQHMDSSTSAASSSNYCNQMMKSRNLTKDRCKPVNTFVHESLADVQAVCSQKNVACKNGQTNCYQSYSTMSITDCRETGSSKYPNCAYKTTQANKHIIVACEGNPYVPVHFDASV
[1]
  Tm: 47.7 °C
  heat capacity change of unfolding: 2 kcal/mol/K
  unfolding enthalpy (calorimetric): 107 kcal/mol

B4: Alpha-crystallin A chain wild type, P02470 (protein)
chain: MDIAIQHPWFKRTLGPFYPSRLFDQFFGEGLFEYDLLPFLSSTISPYYRQSLFRTVLDSGISEVRSDRDKFVIFLDVKHFSPEDLTVKVQEDFVEIHGKHNERQDDHGYISREFHRRYRLPSNVDQSALSCSLSADGMLTFSGPKIPSGVDAGHSERAIPVSREEKPSSAPSS
Bos taurus, pH 5, 20 °C, Urea, Fluorescence, Sodium acetate 50 mM
  unfolding free energy: 8.46 kcal/mol
[2]
  Tm: 45.6 °C
  unfolding enthalpy (calorimetric): 98 kcal/mol
  unfolding enthalpy (van 't Hoff): 91 kcal/mol
[3]
  Tm: 59.8 °C
  heat capacity change of unfolding: 1.36 kcal/mol/K
  unfolding enthalpy (calorimetric): 80.3 kcal/mol
  unfolding enthalpy (van 't Hoff): 78.6 kcal/mol

B5: wild type, B8YLY0 (protein)
chain: MKKVLMAFIICLSLILSVLAAPPSGAKAESVHNPVVLVHGISGASYNFFAIKNYLISQGWQSNKLYAIDFYDKTGNNLNNGPQLASYVDRVLKETGAKKVDIVAHSMGGANTLYYIKYLGGGNKIQNVVTLGGANGLVSSTALPGTDPNQKILYTSIYSLNDQIVINSLSRLQGARNIQLYGIGHIGLLSNSQVNGYIKEGLNGGGLNTN
Bacillus subtilis, pH 0.8, 25 °C, GdnHCl, CD, KCl-HCl 20 mM, reversible: No
  denaturant midpoint (higher = more stable): 3 M
Bacillus subtilis, pH 0.8, 25 °C, GdnHCl, Fluorescence, KCl-HCl 20 mM, reversible: No
  denaturant midpoint (higher = more stable): 2.6 M
Bacillus subtilis, pH 0.8, CD, KCl-HCl 20 mM, reversible: No
  Tm: 75 °C
Bacillus subtilis, pH 4, Fluorescence, Sodium acetate 50 mM, reversible: Yes
  Tm: 45 °C
Bacillus subtilis, pH 5.8, 25 °C, Urea, Fluorescence, NaAc 20 mM, reversible: Yes
  unfolding free energy: 11.2 kcal/mol
Bacillus subtilis, pH 5.8, 25 °C, Urea, NMR, NaAc 20 mM, reversible: Yes
  unfolding free energy: 9.56 kcal/mol
Bacillus subtilis, pH 5.8, DSC, NaAc 20 mM, reversible: No
  Tm: 53 °C
Bacillus subtilis, pH 6, CD, phosphate buffer 20 mM
  Tm: 54.6 °C
Bacillus subtilis, pH 7, 25 °C, GdnHCl, CD, Sodium phosphate 20 mM, reversible: Yes
  denaturant midpoint (higher = more stable): 1 M
Bacillus subtilis, pH 7, 25 °C, GdnHCl, Fluorescence, Sodium phosphate 20 mM, reversible: Yes
  denaturant midpoint (higher = more stable): 0.8 M
Bacillus subtilis, pH 7, 25 °C, Urea, Fluorescence, Sodium acetate 50 mM, reversible: Yes
  unfolding free energy: 11.4 kcal/mol
Bacillus subtilis, pH 7, CD, Sodium phosphate 20 mM, reversible: No
  Tm: 47 °C
Bacillus subtilis, pH 7.2, 25 °C, GdnHCl, CD, Sodium phosphate 50 mM, reversible: Yes
  unfolding free energy: 11.4 kcal/mol and 13.8 kcal/mol

B6: Rhodopsin wild type, P02699 (protein)
chain: MNGTEGPNFYVPFSNKTGVVRSPFEAPQYYLAEPWQFSMLAAYMFLLIMLGFPINFLTLYVTVQHKKLRTPLNYILLNLAVADLFMVFGGFTTTLYTSLHGYFVFGPTGCNLEGFFATLGGEIALWSLVVLAIERYVVVCKPMSNFRFGENHAIMGVAFTWVMALACAAPPLVGWSRYIPEGMQCSCGIDYYTPHEETNNESFVIYMFVVHFIIPLIVIFFCYGQLVFTVKEAAAQQQESATTQKAEKEVTRMVIIMVIAFLICWLPYAGVAFYIFTHQGSDFGPIFMTIPAFFAKTSAVYNPVIYIMMNKQFRNCMVTTLCCGKNPLGDDEASTTVSKTETSQVAPA
[4]
  Tm: 71.7 °C
  unfolding enthalpy (calorimetric): 172 kcal/mol

B7: Steroid Delta-isomerase wild type, P00947 (protein)
chain: MNTPEHMTAVVQRYVAALNAGDLDGIVALFADDATVEDPVGSEPRSGTAAIREFYANSLKLPLAVELTQEVRAVANEAAFAFTVSFEYQGRKTVVAPIDHFRFNGAGKVVSMRALFGEKNIHAGA
[5]
  denaturant m value: 4 kcal/mol/M
  unfolding free energy: 22 kcal/mol
